Results reported in the supplement of paper PMC12042874.
± gives the uncertainty stated by the source.

Experiment: amyloid nucleation score (Sup35N fusion, yeast selection) (log enrichment); library NNK1; higher = more nucleation; inactive = no reads after selection
In short: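 Psi-negative yeast expressed Sup35N fused to peptides of 20 random codons. They were induced 24 hours with 100 μM copper sulfate, grown 7 days at 30°C without adenine and uracil, and their plasmid inserts from input and output were Illumina-sequenced. The nucleation score is the DiMSum log enrichment of output over input reads, centred on the mode score of non-aggregating sequences. Sequences with under 100 input reads were excluded.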

Substance: MGCKAKRAFVEFLSRMEVRP
- amyloid nucleation score: -0.035 ± 0.22

Substance: VYFIVVVKGRSGLFMLSFGD
- amyloid nucleation score: -0.997 ± 1.4

Substance: RGSCMIVGKACS
- amyloid nucleation score: -0.37 ± 0.33

Substance: MSSNMLSEKWASGTEHVGVV
- amyloid nucleation score: -0.657 ± 0.69

Substance: CISLFFVKCGRQAAHPQSRR
- amyloid nucleation score: 8.295 ± 0.062

Substance: LRLENAQLSFTFEYWILYG
- amyloid nucleation score: -0.475 ± 1.7

Substance: FFRIEATSVSLSPAYRLEDR
- amyloid nucleation score: 2.59 ± 0.28

Substance: DSRKSRYGSWVLRWS
- amyloid nucleation score: inactive

Substance: VLMLRSGWPQRRPHFG
- amyloid nucleation score: -0.301 ± 0.76

Substance: YSYMTYRALFVVTSCLSRWG
- amyloid nucleation score: 1.11 ± 0.66

Substance: WVGFGDVKSVTVMLYAPAWT
- amyloid nucleation score: 5.04 ± 0.094

Substance: YACQQ
- amyloid nucleation score: 0.314 ± 0.62

Substance: RIGTFGNDNSMFRSDVLSVS
- amyloid nucleation score: 0.579 ± 0.35

Substance: LIWWFEGRPRVSGGFSVFDV
- amyloid nucleation score: -0.304 ± 1.1

Substance: FSDVCGPSPLCW
- amyloid nucleation score: 0.142 ± 0.44

Substance: CFINSDVMVLLVTTYHYS
- amyloid nucleation score: 7.321 ± 0.071

Substance: NKSNSLYGSLKWGDRAYSSY
- amyloid nucleation score: -1.31 ± 0.71

Substance: WIFSAMVYDSRKLTSYDKSE
- amyloid nucleation score: 0.543 ± 0.32

Substance: DSLLWVMKYSMVSFYMCDYR
- amyloid nucleation score: -0.668 ± 0.97

Substance: TLFCSGSNAKAGCSEHYYFC
- amyloid nucleation score: 3.04 ± 0.16

Substance: FNDRPVWVFCLRWWDSSVNS
- amyloid nucleation score: -0.857 ± 0.84

Substance: LTKASHVRLNNVGV
- amyloid nucleation score: 0.034 ± 0.6

Substance: ANADDMLRFRGDF
- amyloid nucleation score: 0.243 ± 0.44

Substance: FFNAV
- amyloid nucleation score: -0.353 ± 0.59

Substance: GFDKLVGPCGYGLRRGSLWR
- amyloid nucleation score: 0.781 ± 0.52

Substance: EWVGQFEYEGTTLWVYLVTL
- amyloid nucleation score: -0.419 ± 0.27

Substance: PSYHSRPRSPYGNIEYKEHR
- amyloid nucleation score: 0.46 ± 0.36

Substance: GHSSRLRFT
- amyloid nucleation score: -0.42 ± 0.48

Substance: ARSCVLNLVPGFSPSFGT
- amyloid nucleation score: -0.426 ± 0.52

Substance: LEGLRQDEVGRSASKTVKYS
- amyloid nucleation score: 1.18 ± 0.76

Substance: LNINSKYLNLICYHIRHLAV
- amyloid nucleation score: -0.593 ± 0.78

Substance: SNFVALYDRYNCFSVCIYCG
- amyloid nucleation score: 5.78 ± 0.063

Substance: AYWSGTYEGEWYLVDRQFYW
- amyloid nucleation score: 0.542 ± 1

Substance: DPVVFDSWELLKQWISCKRC
- amyloid nucleation score: 0.226 ± 1.6

Substance: TQDEMVSVRNKLSCVTLE
- amyloid nucleation score: 4.04 ± 0.06

Substance: VATCWRYSGMSARLLSGSLN
- amyloid nucleation score: 0.516 ± 0.4

Substance: LLMYKKCRQWGCGNVSCSFD
- amyloid nucleation score: 7.086 ± 0.065

Substance: LGKPVWVQEAKLDADNLWCV
- amyloid nucleation score: -0.438 ± 0.49

Substance: ILPCFDANIIQDP
- amyloid nucleation score: -0.064 ± 0.81

Substance: CTYNLTCLWHMELNSSMIMR
- amyloid nucleation score: 5.37 ± 0.061

Substance: VNVTCMFWD
- amyloid nucleation score: 4.05 ± 0.058

Substance: LKHPDIYRKVERKVRVNMFF
- amyloid nucleation score: -0.792 ± 0.31

Substance: RFMCWVFTGCLGLSGNSSC
- amyloid nucleation score: 1.95 ± 0.16

Substance: PGFPNLVTSRTLIVCQL
- amyloid nucleation score: inactive

Substance: SWFYYAKC
- amyloid nucleation score: 0.05 ± 0.76

Substance: KSLENDHIVSVCSFLISRTR
- amyloid nucleation score: 3.97 ± 0.081

Substance: TPSSAFFDAMLNLQQVQSKC
- amyloid nucleation score: inactive

Substance: RRGTSFLQIYLACSHVQTSH
- amyloid nucleation score: 4.56 ± 0.11

Substance: SPQQVSLVGWSRWTEPRTS
- amyloid nucleation score: -0.211 ± 0.36

Substance: VFFKKAIIFRSKV
- amyloid nucleation score: 0.318 ± 0.33

Substance: FMLVAG
- amyloid nucleation score: 0.746 ± 0.53

Substance: NQFMHGTETYFEDINALVWG
- amyloid nucleation score: 1.43 ± 0.66

Substance: SDSFLSSYHSFMRDVWV
- amyloid nucleation score: 0.872 ± 0.58

Substance: VTTRLPIYRVKF
- amyloid nucleation score: 0.228 ± 0.37

Substance: LFWSET
- amyloid nucleation score: -0.526 ± 0.81

Substance: VHTGLVSEIRRDKREGAYPE
- amyloid nucleation score: 0.128 ± 0.99

Substance: NISSQEPISRAATSRKVAGQ
- amyloid nucleation score: 0.466 ± 1.4

Substance: NPFWWVRPL
- amyloid nucleation score: 0.284 ± 0.81

Substance: NKKNSSLNHSL
- amyloid nucleation score: -0.077 ± 0.43

Substance: EMCFGLFGKLVWCETWLVKA
- amyloid nucleation score: 0.344 ± 0.32

Substance: YFLTHRTGRYNMGDSSVRTL
- amyloid nucleation score: -0.319 ± 0.38

Substance: IQSIIW
- amyloid nucleation score: -0.418 ± 0.5

Substance: EPLLHSG
- amyloid nucleation score: inactive

Substance: SWIEKDHFQVGARYRMSS
- amyloid nucleation score: -0.376 ± 0.6

Substance: FQWNAANYANSYPCKLLCSA
- amyloid nucleation score: 1.78 ± 0.21

Substance: MTRVCL
- amyloid nucleation score: -0.035 ± 0.62

Substance: TVWTGQRRMRVSTGCLWSGG
- amyloid nucleation score: inactive

Substance: PTPEANAIKGLYQRGNCVYG
- amyloid nucleation score: -0.515 ± 1

Substance: NVMIAIPYVGVDKRGMVSGM
- amyloid nucleation score: 5.22 ± 0.1

Substance: FMYAQMFPTAVQDYVK
- amyloid nucleation score: inactive

Substance: EGVVMRISWKNTNGHVYEKG
- amyloid nucleation score: 2.06 ± 0.23

Substance: VNVSVDFKREMRIPWLAGIC
- amyloid nucleation score: -0.651 ± 0.67

Substance: TMVFVCSNYGPSFSLLVC
- amyloid nucleation score: 2.83 ± 0.24

Substance: FWVDCSRVVRLKIQFNLV
- amyloid nucleation score: 0.864 ± 0.42

Substance: MPYLNGHYRH
- amyloid nucleation score: inactive

Substance: EPARK
- amyloid nucleation score: inactive

Substance: QSADLMNSMTLICGWSVQIA
- amyloid nucleation score: 4.43 ± 0.12

Substance: WDVIYVFFIHIYQSVGS
- amyloid nucleation score: -0.48 ± 0.85

Substance: GWMVRMLEHYHPAV
- amyloid nucleation score: -0.226 ± 0.42

Substance: ARGYPLTYKYQVSRGSRLTL
- amyloid nucleation score: 0.439 ± 0.4

Substance: TYPMATIIVALG
- amyloid nucleation score: -0.681 ± 0.38

Substance: DVVEYVIWSYTWMNLAHYCR
- amyloid nucleation score: 0.136 ± 0.24

Substance: STLLMTSDSSALMLLYTSIL
- amyloid nucleation score: -0.336 ± 0.46

Substance: DDLQCITLRFTRDASRGVSL
- amyloid nucleation score: 0.843 ± 0.84

Substance: VRAEVGQDRVGRM
- amyloid nucleation score: 0.09 ± 0.44

Substance: LRVVYPGPSYAGASDLSSMR
- amyloid nucleation score: -0.926 ± 0.63

Substance: GRFRSTTVWFWVLDVLYGCS
- amyloid nucleation score: 0.547 ± 0.29

Substance: TGAYSECFALLIMG
- amyloid nucleation score: -1.09 ± 1

Substance: AKPMNKTEYFSAYLQLHMGI
- amyloid nucleation score: 3.1 ± 0.12

Substance: LIGQLIFRPVNGARKIPV
- amyloid nucleation score: -0.31 ± 0.29

Substance: KVCAVTM
- amyloid nucleation score: 0.095 ± 0.3

Substance: GTSSRNLAFLVPWMVYMRVR
- amyloid nucleation score: 0.635 ± 0.41

Substance: WGLSQSLCHSRNNLHNWISG
- amyloid nucleation score: 0.207 ± 0.53

Substance: SSSKLLR
- amyloid nucleation score: -0.4 ± 0.7

Substance: TLTCFLIYHTWTR
- amyloid nucleation score: -1.34 ± 1.4

Substance: VAGWRPFILLGGPRLNTVRQ
- amyloid nucleation score: 0.407 ± 0.67

Substance: LGRGSAVSSPWVIIRIVNML
- amyloid nucleation score: 0.784 ± 0.72

Substance: LWEIRILLL
- amyloid nucleation score: -0.994 ± 0.68

Substance: CVYSFNWLRLLGALSG
- amyloid nucleation score: 2.18 ± 0.24

Substance: FLLLCRSFFSARTILRCTMV
- amyloid nucleation score: 0.631 ± 0.89

Substance: NLLTMDIERTGECIDFWVD
- amyloid nucleation score: 0.008 ± 0.38

Substance: WKCLRYPY
- amyloid nucleation score: inactive

Substance: DKAGNGQNGATGWRTMALSG
- amyloid nucleation score: 0.777 ± 1.2

Substance: SWFTVRCDDC
- amyloid nucleation score: inactive

Substance: MACVVRVLGVMVHLKMLVGL
- amyloid nucleation score: -1.11 ± 1

Substance: TMIWFQLRTTLLNYQATVFL
- amyloid nucleation score: inactive

Substance: YLEVPMKFFEFFGFRPVAFV
- amyloid nucleation score: -0.121 ± 0.54

Substance: LFEGHLTSISEPGVVDRSIR
- amyloid nucleation score: -0.573 ± 1.7

Substance: GGNKPCG
- amyloid nucleation score: 2.11 ± 0.57

Substance: KLGGFVFGANVCCEDLSYEF
- amyloid nucleation score: 0.984 ± 0.55

Substance: LITYLRLFYRITVRTG
- amyloid nucleation score: 0.48 ± 0.4

Substance: SLIRSMTISDNLIMWAGWTY
- amyloid nucleation score: -0.7 ± 0.38

Substance: LFKYYNWVGTLVTYIMIYVW
- amyloid nucleation score: -1.62 ± 0.62

Substance: TIVYATGMNMYTDAC
- amyloid nucleation score: -0.203 ± 0.34

Substance: IACCVRSVECGRGCQLRGLA
- amyloid nucleation score: 0.217 ± 0.83

Substance: DRLWKSTWKGMTRLMRRSAE
- amyloid nucleation score: -0.968 ± 0.48

Substance: VMVWLGDREAGLCESELGAG
- amyloid nucleation score: 0.12 ± 0.45

Substance: GYLSGSMSDETGTPDMCTRG
- amyloid nucleation score: 0.353 ± 0.51

Substance: RVNLFSPYAWCIQIGSHHYG
- amyloid nucleation score: 7.444 ± 0.047

Substance: TLLRLFEKPLICYVIGRSLI
- amyloid nucleation score: -1.09 ± 0.61

Substance: LLMPDSNG
- amyloid nucleation score: -0.699 ± 0.3

Substance: NFAPRYLAI
- amyloid nucleation score: 0.295 ± 0.34

Substance: LRRPVRSTLNGMRMSQHTRR
- amyloid nucleation score: -0.164 ± 0.66

Substance: NSATRREPSVVGLYWSVR
- amyloid nucleation score: -2.42 ± 2.7

Substance: NLSLRLFVSLSLIMTVMRVP
- amyloid nucleation score: -0.127 ± 0.4

Substance: CASRFMCGPTINKWVR
- amyloid nucleation score: -1.02 ± 1.1
